Assay results published in patent publication US7125847.
“And” between values parts separate entries of the source, which are not always exact repeats. Identical values can stand only once. Like-named read-outs stand apart in the source and are kept apart here. Where no end group is shown, it is not given here.

Key:
[1] = target: stretch-activated channels (SACs) of activated adult rat astrocytes (rat)
[2] = target: stretch-activated channels (SACs) of activated adult rat astrocytes (rat); remark: listed apart in the source
[3] = target: stretch-activated channels (SACs) of activated adult rat astrocytes (rat); assay: cell-based or functional assay

B1: GsMTx-4 purified from Grammostola spatulata venom (peptide)
peptide: GCLEFWWKCNPNDDKCCRPKLKCSKLFKLCNFSSG-NH2
modifications: disulfide (positions not given here); not fully specified (bridges); also: 3 disulfides (ICK motif), pairing not given here
kon [1]: 340000 M⁻¹ s⁻¹
Kd [2]: 631 nM and 415 nM
koff [2]: 0.21 s⁻¹
kon [2]: 330000 M⁻¹ s⁻¹
average SAC current after GsMTx-4 washout [3]: 2.28 pA
average SAC current during GsMTx-4 application [3]: 0.17 pA
mean SAC current before GsMTx-4 application [3]: 2.04 pA
ratio of blocked to unblocked current I/I0 [3]: 0.083
time constant of recovery of SAC current on washout [3]: 4.7 s
